assay: soluble on expression in E. coli; label from the status in PepcDB or PDB records

Sequence	soluble on expression in E. coli
MSLGLTPHAPSPLADRLRPQSLDEVVGQQHLLGPEGPIGRMAAARRLASMILWGPPGTGKTTIARLLAKAGGYEFMQISAVFSGVADLKKAFEQARARRMAGQSTLLFVDEIHRFNRAQQDGFLPFVEEGIVTLVGATTENPSFELNGALLSRCQVFVLKRLTEESLELLLQRAEAAENRPLPIDAEARSALVAMADGDGRYLLTLAETLFSIGTDTPLNPTQLGQFLQKRRPAYDKDREEHYNLISALHKSVRGSDPDAALYWLARMLEGGEDPLFIARRLVRMASEDIGAADPLSLLLTTAAKDAYDFLGSPEGELALAQAVVHMASAPKSNAVYTAYKAARRAAKETGSLMPPSHILNAPTKLMKSLGYGDGYAYDHDVEGGVSGQNYFPDGMERRRFYEPKPVGAEAKVRERLEAWGKVRKDGKEGHHHHHH	soluble
MSLGNIKTLLENRFKKPTSDKMESLAKKRLEGELSPFLNGFTNPKLSSQEEAKFRQLLEEYSFSNEISKHDLQQLCHLSAQVKQIHHQAVLLHGERIKKVRELLTSYREGAFSAWLLLTYGNRQTPYNFLVYYELFSTLPDSLKLELEKLPRQAVYTLAAREGTQEKKEAIIRNYQGETKGELLEIIRKEFPLLPTDRRHTPLSQKAFTLLAKGTKLLRQCTDVSHEELIALEKLIKKLQKVTTNLLSNTKVSRNDNEIQNSRNEGHHHHHH	soluble
MSLGNREILYKNLFYNAELFTCRFPELSAALGLDSEIGIKQFAERIPESYYLEEAKLKETDKKIFTARINGKYLHSKYNPISEAEKNISLDFFEDKKAKSSCVFCGLGLGYAQELYAKKYPKSSLIIIEPDLFVFFLFLQSRPLDDFFMHENLILLLGLYPKDVLDFFESKSFFDTPIFKIQSLIDVSSSWFSEFEALKKRRNEKTNLNKNTLKKFGKLWLKNFLKNIKQTEGLFGINKIENIFASCPALIIAAGPGLDDTINLVKENEDKFIIIAADTAVRACHRHGLKPDFILLMDAQYWNYLHLSDLDISDSILITESSVYPAVFRLKTRAKFLCTSMFPLAQYIEKLIGEKGKLVTGGSVATACWDFARILGCSEIIFAGLDLAFPDFQTHFKGSRFEEDVNAFSNRFFPSETASHLSLYSASPQLKEGYEGKVLSDKRMQMYAWWFESKIAEFPDIKTYNLLPRGLKIPNMPALSMEEFLLKAKASPLSKKIKIEKMSALFNLSSYKKEGSFSSPNLSSALKELSTDLEKTMKLAREGMDICLNLLDSLKTGKPLEDSIIKKVWKTEGHHHHHH	soluble
MSLGPADGGGDLVGVAGRESWVQTVPYGMVVCPSGTFHMGQADEDVPATQINLNKQVTIGGFYMDETEITNNEYRQFMNVMLEDSVATLGEEYIMTELYPDTTVWVRDFSHHMGDPMMEYYYAHPAFDEYPVVGVDWWAAKYFCEWRTQHMNNWRAENGLWQMPRFRLPSEAEWEYAARGGRDMAKYPWGNPYIRNSKGCMLANFKPGRGNYYDDGFMYTSPVASYFSNDFGLYDMAGNISEWCEDAYYDAAVPIVWDLNPTYYNDDEVRKIIRGGSWKDIAYYLETGTRTFEYQDTSKSYIGFRTVMTYLGRSSGYEGHHHHHH	not soluble
MSLGQGIPANPADGAGEWGDYRDCDSPWKAVEDAVRAAARQHPDAAYVYYTGDIIDHGVWETTVAGNIVSMTRTYQLFRDVFGSKPVYNVLGNHENNPTNVFAPSYITQSEFSAKWLYDFSADQWSTWLPTASQQTIRQGGFYTVLVRPGFRIIGMNNNDAYTFNWWILYDPAYLQAQLQWVHDTLLQAEAAGEKVHILAHIPIGAGTSYRTWARQYRRILDRFWDVITAHFHGHTHADEFNVFYSLANPQHAISAGFNGGGTVPFSNYNPNYVVYYVNPQTYDVTDFESWYFSLTEANQNPNREGHHHHHH	not soluble
MSLGQHFLKDLKVAQDIADTVDTFPELPVLEVGPGMGVLTQFLVKKDRLVKVVEVDYESVAYLREAYPSLEDHIIEDDFLKMNLHRLFDGKPFVLTGNYPYNISSQIFFKMLENKDIIPCCTGMIQKEVAERIAAGPGSKTYGILSVLIQAWYKVEYLFTVSEHVFNPPPKVKSAVIRMTRNDTKELGCDEKLFKQVVKTTFNQRRKTLRNSIKPILGKDCPLTEDALFNKRPEQLSVEEFISLTNQVEEALKTATASEGHHHHHH	soluble
MSLGQKVVAMLDFLLAYSDYSKDFRPLIIDQPEDNLDNRYIYRHLVQQFRDVKAQRQIILATHNATIVTNSMTDQVVIMESDGVNGWIESQGYVSEKYIKNHIINQLEGGKDSFKHKMSIYETALSEGHHHHHH	not soluble
MSLGRGLYFNQAQKHFQQLLLMEERATIARELHDSLAQVLSYLRIQLTLLKRSIPEDNATAQSIMADFSQALNDAYRQLRELLTTFRLTLQQADLPSALREMLDTLQNQTSAKLTLDCRLPTLALDAQMQVHLLQIIREAVLNAMKHANASEIAVSCVTAPDGNHTVYIRDNGIGIGEPKEPEGHYGLNIMRERAERLGGTLTFSQPSGGGTLVSISFRSAEGEESQLMEGHHHHHH	soluble
MSLGVKVDESFCLSDRDHIRKRPNMYVGSVNREAHERFIMGKFRKVEYVEGLVKIINEILDNSIDEAIRTDFKFANRIEVKIDHNLVTISDNGRGIPQDDVRTPEGKIVPKPVAAWTMAKSGSNFDDENRVTMGMNGVGSFLTNCYSSIFIGETSNGKRKVTINCTDGAQNMDYRTSPTKEQGTTVKFTPDFSIFGVDGIDEETKEVIKDRLMALAVAFPSVKFTYNGETLPNKFAMYGAMYGDSTITQTNNKISFILASTEDGFKQKSFVNGLDTKNGGVHVDCMIDGIYAELEPMIKKKHAIEIPKARVKECLTLVVFLHNFNAPAFDSQTKEKLTNTAGEFNNHAGLNYKKIAKQIMDTSEIITPIIESALIRKQAAEAAAITKEGHHHHHH	soluble
MSLGVLFSPPPASAYDGVEFLEFAVDEAVGARLGNWLKRLGFAEAGKHRSKEVQLLRQGDINIVLNAEPYSFGHNFFEAHGPSLCATALRVKDQQAALKRATAFRGQPFRGLVGPNECEVPAVRAPDGSLLYLVEQGTAGHTLYDTDFSLDNNATATGGLRRIDHMALALPAESLDSWVLFYKSLFDFAADDEVVLPDPYGLVKSRALRSQCGTLRLPLNISENRNTAIAHALSSYRGSGVHHIAFDCDDIFREVARAKLAGVPLLEIPLNYYDDLAARFDFDDEFLSELAYYNVLYDRDAQGGELFHVYTEPFEERFFFEIIQRKAGYAGYGAANVAVRLAAMAKARSGAARKEGHHHHHH	soluble
MSLGYIMDLRKELPNPHRPLIMCSAGIIIIDKKGRVLLQKRTDNNKWGLPGGSLELGESFEEAAIREAYEEVGLKVKSLSLFNVYSGKECYNKYPNGDEIYNASSIFISNDYEGEVILDGEESADAVFFKKVDIPSLEEVNPPDRIVIKDIIEKLNIEKYEGHHHHHH	not soluble
MSLHSVAEREKRNAVHDSLTGLPNRKYCFELIDDRIQSGDPFSVILFDVVNFKQVNDAMGHFCGDQLLIQIGQRLQDKLKGSDKIFRVGGDEFVILTSSACEKTGTELIESLDCALSARFHLDEFQVSSRVVFGISTYPYDAISNDLLIKHADIAMYHAKRNGNLFAFYHDDMNVGAKYQLEISSRIQCALEKEEFQLYYQPLIDANTNLAVGFEAVIRWHDENGKTISPNDFIPIAERSNQVHNITMWVLGQVEKDLKTFIEKGIKLPVHVNLSAKDLSSNLLFHRLEKLLENNPQFADLISLEITETMAIDRVVELNPLIHQIKGLGIKISLDDFGTGYSSLSLLRDLPVDQIKIDRSFLCTANRTEGSRSIVENTIALAHGLGYSVVAEGVQDMDTLYFLRSRGCDIIQGYLFCPALPLNEVINWVNEHDDKQSHTRRAEGHHHHHH	soluble
MSLIHPHIADALKVPDLVRLNDDLVLIRFESMKIYSALAAVRHLLERGTIRPGQTLIDSSSGIYAYALALACHRYGMRCHVVASTTVDTTTRAQLEILGATVEQVRPSRNLKLDQELRVRRVREILADHPDWHWMRQYHDDVHYLGYQEVADRITTAFPSTPLTVVGGVGSGASTGGLVERLRATDPSVRLVGVQPFGSVTFGSQAHHDPEAIIAGIGSSIVFDNVRHHLYDAVHWLDFTHAMSGTIALLRERAVFAGLSTGAGYLAATYEARRHPDRLHLVIGADTGHRYVERVFARHTEALDPAPLKPVEVSAPEEMSMPWSRMAWRRTAEGHHHHHH	soluble
MSLIHYIPMFGKIKLTNLEIKMGNELISIKEEGDYFLYLRRDVERVIVGDYLQILPAPARGYGVKLMMVKLKRPIALAPGKSIEGFIQVPVEVSVKVGDSEIDRFGIGREKYALYGTLENGVIVRYCTGYIGNEPNGLGNLKVKIVNKGEDWGFIDRIVFPMLDLMYYSKDKAFYPLIRVEIQEDINVINTGEAPLPNLVSTGEEKSLRFRMRWEGHHHHHH	soluble
